Measured values from the supplement of paper PMC7125110.
± gives the standard error. For part of these data: Variants at the floor of the assay were thinned out.

B1: glmS ribozyme (parent)
chain: AUAAAAGCGCCAGAACUACAGAAAUGUAGUUGACGAGGAGGAGGUUUAUCGAAUUUUCGGCGGAUGCCUCCAAA

Legend:
Settings in all cases: with glucosamine-6-phosphate
glucosamine-6-phosphate [1] = variants of: B1; experiment: kcat; higher = faster cleavage; RNA array
Summary of the method: (§1)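 Barcoded ribozyme variants, transcribed in situ by E. coli RNA polymerase on sequenced MiSeq chips, were followed via a hybridised Cy3 probe at 37 °C. Glucosamine-6-phosphate ranged from 40 μM to 10 mM in HEPES/KCl/Mg(OAc)2 buffer. kobs came from decay fits to per-tile medians, and kcat and KM from weighted Michaelis–Menten fits.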

glucosamine-6-phosphate [2] = variants of: B1; experiment: KM; higher = weaker cofactor use; RNA array
Summary of the method: as §1

glucosamine-6-phosphate [3] = variants of: B1; experiment: self-cleavage kobs at 40 uM GlcN6P; higher = faster cleavage; RNA array
Summary of the method: as §1

glucosamine-6-phosphate [4] = variants of: B1; experiment: self-cleavage kobs at 160 uM GlcN6P; higher = faster cleavage; RNA array
Summary of the method: as §1

glucosamine-6-phosphate [5] = variants of: B1; experiment: self-cleavage kobs at 640 uM GlcN6P; higher = faster cleavage; RNA array
Summary of the method: as §1

glucosamine-6-phosphate [6] = variants of: B1; experiment: self-cleavage kobs at 2500 uM GlcN6P; higher = faster cleavage; RNA array
Summary of the method: as §1

glucosamine-6-phosphate [7] = variants of: B1; experiment: self-cleavage kobs at 10000 uM GlcN6P; higher = faster cleavage; RNA array
Summary of the method: as §1

Variant	kcat (glucosamine-6-phosphate [1]) [s⁻¹]	KM (glucosamine-6-phosphate [2]) [µM]	self-cleavage kobs at 40 uM GlcN6P (glucosamine-6-phosphate [3]) [s⁻¹]	self-cleavage kobs at 160 uM GlcN6P (glucosamine-6-phosphate [4]) [s⁻¹]	self-cleavage kobs at 640 uM GlcN6P (glucosamine-6-phosphate [5]) [s⁻¹]	self-cleavage kobs at 2500 uM GlcN6P (glucosamine-6-phosphate [6]) [s⁻¹]	self-cleavage kobs at 10000 uM GlcN6P (glucosamine-6-phosphate [7]) [s⁻¹]
A12U A15U	0.0118 ± 0.0023	1190 ± 320	0.000433 ± 4.6e-05	0.0011 ± 0.00016	0.00509 ± 0.00065	0.00905 ± 0.0015	0.00986 ± 0.0013
U45C C67U	0.00406 ± 0.00066	2250 ± 580	8.28e-05 ± 9.7e-06	0.000146 ± 5.8e-05	0.000935 ± 0.00014	0.00203 ± 0.00032	0.00337 ± 0.00031
A1U U2G A3G A5U	0.0105 ± 0.0015	1320 ± 260	0.000338 ± 5.7e-05	0.00116 ± 0.00022	0.00274 ± 0.00078	0.006 ± 0.0016	0.0103 ± 0.0017
A33G G60C	< 1e-05	–	–	< 1e-05	< 1e-05	–	–
A12U U46C	0.0152 ± 0.0021	2700 ± 520	0.000227 ± 3.3e-05	0.00106 ± 0.00025	0.00223 ± 0.00068	0.00688 ± 0.0018	0.0123 ± 0.0017
A39C G51A	< 1e-05	–	–	–	–	< 1e-05	< 1e-05
A12U U54G	0.0434 ± 0.021	–	0.00183 ± 0.00035	0.00452 ± 0.00078	0.0495 ± 0.012	0.0405 ± 0.019	0.0363 ± 0.0092
A36U A52G	1.01e-05 ± 3e-06	–	< 1e-05	–	–	–	< 1e-05
A6U U56C	3.09e-05 ± 1.4e-06	4670 ± 590	–	< 1e-05	–	–	2.11e-05 ± 7.5e-06
C8A C10A G38A C50G	5.64e-05 ± 2.2e-05	–	3.68e-05 ± 1.4e-05	8.75e-05 ± 1.8e-05	9.23e-05 ± 1.7e-05	–	3.67e-05 ± 1e-05
U30C G66A	0.000173 ± 3.1e-05	1860 ± 840	–	–	3.92e-05 ± 1e-05	0.000153 ± 3.4e-05	0.00014 ± 1.9e-05
C16G G32U	0.000915 ± 8.9e-05	3800 ± 700	–	–	0.000144 ± 3.7e-05	0.00032 ± 8.7e-05	0.00068 ± 0.00011
A15U C70G	7.6e-05 ± 6.8e-06	175 ± 85	–	4.66e-05 ± 1.1e-05	5.16e-05 ± 7.6e-06	7.05e-05 ± 8.4e-06	8.19e-05 ± 9.8e-06
A52G C71U	0.00186 ± 0.00014	3440 ± 380	2.74e-05 ± 6e-06	7.83e-05 ± 8.6e-06	0.000293 ± 2.7e-05	0.00078 ± 0.00015	0.00138 ± 0.00012
